In patent US20210388087A1:

Target: Human CD137 ECD (human)
Test: SPR, vs parent H183/L072

Chain of Human CD137 ECD (human) (chain, as listed by the source limits assumed): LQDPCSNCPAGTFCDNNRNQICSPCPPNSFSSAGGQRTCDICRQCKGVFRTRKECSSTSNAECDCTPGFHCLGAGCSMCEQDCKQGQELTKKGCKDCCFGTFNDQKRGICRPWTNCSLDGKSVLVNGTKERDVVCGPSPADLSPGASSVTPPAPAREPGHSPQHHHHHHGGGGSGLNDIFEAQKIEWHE

Row | Binder | fold change of affinity [fold]
1 | dBBDu183H H93E / dBBDu072L (antibody, name in Kabat numbering, V domains shown) VH: QVQLVESGGGLVQPGRSLRLSCAASGFTFSNAWMHWVRQAPGKGLEWVAQIKDKGNAYAAYYAPSVKGRFTISRDDSKNSIYLQMNSLKTEDTAVYYCEYVHYASASTVLPAFGVDAWGQGTTVTVSS VL: DIVMTQSPLSLPVTPGEPASISCQASQELVHMNRNTYLHWYQQKPGQAPRLLIYKVSNRFPGVPDRFSGSGSGTDFTLKISRVEAEDVGVYYCAQGTSVPFTFGQGTKLEIK | 0
2 | dBBDu183H F100gD / dBBDu072L (antibody, name in Kabat numbering, V domains shown) VH: QVQLVESGGGLVQPGRSLRLSCAASGFTFSNAWMHWVRQAPGKGLEWVAQIKDKGNAYAAYYAPSVKGRFTISRDDSKNSIYLQMNSLKTEDTAVYYCHYVHYASASTVLPADGVDAWGQGTTVTVSS VL: DIVMTQSPLSLPVTPGEPASISCQASQELVHMNRNTYLHWYQQKPGQAPRLLIYKVSNRFPGVPDRFSGSGSGTDFTLKISRVEAEDVGVYYCAQGTSVPFTFGQGTKLEIK | 0
3 | dBBDu183H L100dD / dBBDu072L (antibody, name in Kabat numbering, V domains shown) VH: QVQLVESGGGLVQPGRSLRLSCAASGFTFSNAWMHWVRQAPGKGLEWVAQIKDKGNAYAAYYAPSVKGRFTISRDDSKNSIYLQMNSLKTEDTAVYYCHYVHYASASTVDPAFGVDAWGQGTTVTVSS VL: DIVMTQSPLSLPVTPGEPASISCQASQELVHMNRNTYLHWYQQKPGQAPRLLIYKVSNRFPGVPDRFSGSGSGTDFTLKISRVEAEDVGVYYCAQGTSVPFTFGQGTKLEIK | 0
4 | dBBDu183H G100hD / dBBDu072L (antibody, name in Kabat numbering, V domains shown) VH: QVQLVESGGGLVQPGRSLRLSCAASGFTFSNAWMHWVRQAPGKGLEWVAQIKDKGNAYAAYYAPSVKGRFTISRDDSKNSIYLQMNSLKTEDTAVYYCHYVHYASASTVLPAFDVDAWGQGTTVTVSS VL: DIVMTQSPLSLPVTPGEPASISCQASQELVHMNRNTYLHWYQQKPGQAPRLLIYKVSNRFPGVPDRFSGSGSGTDFTLKISRVEAEDVGVYYCAQGTSVPFTFGQGTKLEIK | 0
5 | dBBDu183H S99D / dBBDu072L (antibody, name in Kabat numbering, V domains shown) VH: QVQLVESGGGLVQPGRSLRLSCAASGFTFSNAWMHWVRQAPGKGLEWVAQIKDKGNAYAAYYAPSVKGRFTISRDDSKNSIYLQMNSLKTEDTAVYYCHYVHYADASTVLPAFGVDAWGQGTTVTVSS VL: DIVMTQSPLSLPVTPGEPASISCQASQELVHMNRNTYLHWYQQKPGQAPRLLIYKVSNRFPGVPDRFSGSGSGTDFTLKISRVEAEDVGVYYCAQGTSVPFTFGQGTKLEIK | 0
6 | dBBDu183H A102D / dBBDu072L (antibody, name in Kabat numbering, V domains shown) VH: QVQLVESGGGLVQPGRSLRLSCAASGFTFSNAWMHWVRQAPGKGLEWVAQIKDKGNAYAAYYAPSVKGRFTISRDDSKNSIYLQMNSLKTEDTAVYYCHYVHYASASTVLPAFGVDDWGQGTTVTVSS VL: DIVMTQSPLSLPVTPGEPASISCQASQELVHMNRNTYLHWYQQKPGQAPRLLIYKVSNRFPGVPDRFSGSGSGTDFTLKISRVEAEDVGVYYCAQGTSVPFTFGQGTKLEIK | 0
7 | dBBDu183H A100D / dBBDu072L (antibody, name in Kabat numbering, V domains shown) VH: QVQLVESGGGLVQPGRSLRLSCAASGFTFSNAWMHWVRQAPGKGLEWVAQIKDKGNAYAAYYAPSVKGRFTISRDDSKNSIYLQMNSLKTEDTAVYYCHYVHYASDSTVLPAFGVDAWGQGTTVTVSS VL: DIVMTQSPLSLPVTPGEPASISCQASQELVHMNRNTYLHWYQQKPGQAPRLLIYKVSNRFPGVPDRFSGSGSGTDFTLKISRVEAEDVGVYYCAQGTSVPFTFGQGTKLEIK | 0
8 | dBBDu183H A98D / dBBDu072L (antibody, name in Kabat numbering, V domains shown) VH: QVQLVESGGGLVQPGRSLRLSCAASGFTFSNAWMHWVRQAPGKGLEWVAQIKDKGNAYAAYYAPSVKGRFTISRDDSKNSIYLQMNSLKTEDTAVYYCHYVHYDSASTVLPAFGVDAWGQGTTVTVSS VL: DIVMTQSPLSLPVTPGEPASISCQASQELVHMNRNTYLHWYQQKPGQAPRLLIYKVSNRFPGVPDRFSGSGSGTDFTLKISRVEAEDVGVYYCAQGTSVPFTFGQGTKLEIK | 0
9 | dBBDu183H A100fD / dBBDu072L (antibody, name in Kabat numbering, V domains shown) VH: QVQLVESGGGLVQPGRSLRLSCAASGFTFSNAWMHWVRQAPGKGLEWVAQIKDKGNAYAAYYAPSVKGRFTISRDDSKNSIYLQMNSLKTEDTAVYYCHYVHYASASTVLPDFGVDAWGQGTTVTVSS VL: DIVMTQSPLSLPVTPGEPASISCQASQELVHMNRNTYLHWYQQKPGQAPRLLIYKVSNRFPGVPDRFSGSGSGTDFTLKISRVEAEDVGVYYCAQGTSVPFTFGQGTKLEIK | 0

Further lines, results first:

Row | fold change of affinity [fold] | Binder
10 | 0 | dBBDu183H Y97D / dBBDu072L (antibody, name in Kabat numbering, V domains shown) VH: QVQLVESGGGLVQPGRSLRLSCAASGFTFSNAWMHWVRQAPGKGLEWVAQIKDKGNAYAAYYAPSVKGRFTISRDDSKNSIYLQMNSLKTEDTAVYYCHYVHDASASTVLPAFGVDAWGQGTTVTVSS VL: DIVMTQSPLSLPVTPGEPASISCQASQELVHMNRNTYLHWYQQKPGQAPRLLIYKVSNRFPGVPDRFSGSGSGTDFTLKISRVEAEDVGVYYCAQGTSVPFTFGQGTKLEIK
11 | 0 | dBBDu183H T100bD / dBBDu072L (antibody, name in Kabat numbering, V domains shown) VH: QVQLVESGGGLVQPGRSLRLSCAASGFTFSNAWMHWVRQAPGKGLEWVAQIKDKGNAYAAYYAPSVKGRFTISRDDSKNSIYLQMNSLKTEDTAVYYCHYVHYASASDVLPAFGVDAWGQGTTVTVSS VL: DIVMTQSPLSLPVTPGEPASISCQASQELVHMNRNTYLHWYQQKPGQAPRLLIYKVSNRFPGVPDRFSGSGSGTDFTLKISRVEAEDVGVYYCAQGTSVPFTFGQGTKLEIK
12 | 0 | dBBDu183H V100iD / dBBDu072L (antibody, name in Kabat numbering, V domains shown) VH: QVQLVESGGGLVQPGRSLRLSCAASGFTFSNAWMHWVRQAPGKGLEWVAQIKDKGNAYAAYYAPSVKGRFTISRDDSKNSIYLQMNSLKTEDTAVYYCHYVHYASASTVLPAFGDDAWGQGTTVTVSS VL: DIVMTQSPLSLPVTPGEPASISCQASQELVHMNRNTYLHWYQQKPGQAPRLLIYKVSNRFPGVPDRFSGSGSGTDFTLKISRVEAEDVGVYYCAQGTSVPFTFGQGTKLEIK
13 | 0 | dBBDu183H S100aD / dBBDu072L (antibody, name in Kabat numbering, V domains shown) VH: QVQLVESGGGLVQPGRSLRLSCAASGFTFSNAWMHWVRQAPGKGLEWVAQIKDKGNAYAAYYAPSVKGRFTISRDDSKNSIYLQMNSLKTEDTAVYYCHYVHYASADTVLPAFGVDAWGQGTTVTVSS VL: DIVMTQSPLSLPVTPGEPASISCQASQELVHMNRNTYLHWYQQKPGQAPRLLIYKVSNRFPGVPDRFSGSGSGTDFTLKISRVEAEDVGVYYCAQGTSVPFTFGQGTKLEIK
14 | 0 | dBBDu183H V100cD / dBBDu072L (antibody, name in Kabat numbering, V domains shown) VH: QVQLVESGGGLVQPGRSLRLSCAASGFTFSNAWMHWVRQAPGKGLEWVAQIKDKGNAYAAYYAPSVKGRFTISRDDSKNSIYLQMNSLKTEDTAVYYCHYVHYASASTDLPAFGVDAWGQGTTVTVSS VL: DIVMTQSPLSLPVTPGEPASISCQASQELVHMNRNTYLHWYQQKPGQAPRLLIYKVSNRFPGVPDRFSGSGSGTDFTLKISRVEAEDVGVYYCAQGTSVPFTFGQGTKLEIK
15 | 0 | dBBDu183H Y94E / dBBDu072L (antibody, name in Kabat numbering, V domains shown) VH: QVQLVESGGGLVQPGRSLRLSCAASGFTFSNAWMHWVRQAPGKGLEWVAQIKDKGNAYAAYYAPSVKGRFTISRDDSKNSIYLQMNSLKTEDTAVYYCHEVHYASASTVLPAFGVDAWGQGTTVTVSS VL: DIVMTQSPLSLPVTPGEPASISCQASQELVHMNRNTYLHWYQQKPGQAPRLLIYKVSNRFPGVPDRFSGSGSGTDFTLKISRVEAEDVGVYYCAQGTSVPFTFGQGTKLEIK
